Where no end group is shown, it is not given here. [ ]: non-standard residue; d: D form. pS = N[C@@H](COP(=O)(O)O)C(=O)O
B1: GST-tagged CNOT1(800–1015) (domain or fragment, human, UniProt A5YKK6-2 800-1015, looked up)
chain: NNDPFVQRKLGTSGLNQPTFQQTDLSQVWPEANQHFSKEIDDEANSYFQRIYNHPPHPTMSVDEVLEMLQRFKDSTIKREREVFNCMLRNLFEEYRFFPQYPDKELHITACLFGGIIEKGLVTYMALGLALRYVLEALRKPFGSKMYYFGIAALDRFKNRLKDYPQYCQHLASISHFMQFPHHLQEYIEYGQQSRDPPVKMQGSITTPGSIALAQA
B2: MBP-fused full-length human Tristetraprolin (TTP) (natural protein, UniProt P26651 1-326, looked up)
chain: MDLTAIYESLLSLSPDVPVPSDHGGTESSPGWGSSGPWSLSPSDSSPSGVTSRLPGRSTSLVEGRSCGWVPPPPGFAPLAPRLGPELSPSPTSPTATSTTPSRYKTELCRTFSESGRCRYGAKCQFAHGLGELRQANRHPKYKTELCHKFYLQGRCPYGSRCHFIHNPSEDLAAPGHPPVLRQSISFSGLPSGRRTSPPPPGLAGPSLSSSSFSPSSSPPPPGDLPLSPSAFSAAPGTPLARRDPTPVCCPSCRRATPISVWGPLGGLVRTPSVQSLGSDPDEYASSGSSLGGSDSPVFEAGVFAPPQPVAAPRRLPIFNRISVSE

Key:
[1] = target: CNOT1(800–999), TTP-interacting fragment of CNOT1 (human, UniProt A5YKK6-2 800-999); assay: ITC
[2] = target: T1, MBP-TTP lacking amino acids 179–192 (TTP-MUT1) (human, UniProt P26651 1-326, lacking amino acids 179–192); assay: pull-down
T1 sequence (looked up): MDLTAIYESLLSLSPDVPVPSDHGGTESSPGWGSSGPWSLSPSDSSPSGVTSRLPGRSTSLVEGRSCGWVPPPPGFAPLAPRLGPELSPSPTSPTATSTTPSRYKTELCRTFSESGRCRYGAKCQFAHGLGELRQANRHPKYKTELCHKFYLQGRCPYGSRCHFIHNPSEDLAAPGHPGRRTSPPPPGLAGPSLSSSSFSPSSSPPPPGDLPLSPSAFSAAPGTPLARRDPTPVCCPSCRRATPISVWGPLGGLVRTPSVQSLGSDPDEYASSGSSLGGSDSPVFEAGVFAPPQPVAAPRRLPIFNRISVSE

[3] = target: B2; assay: pull-down
[4] = target: GST-fused CNOT1 fragment, residues 727–1266 (human, UniProt A5YKK6-2 727-1266); assay: pull-down
[5] = target: B1; assay: pull-down

APRRLPIFNRI[pS]VSE [TTP-CIM peptide 312–326 containing phospho-Ser323]
Kd [1]: ~0.625 mM

B1
binding result [2]: binds
binding result [3]: binds

B2
binding result [4]: binds

B3: MBP-tagged TTP-CTD with Asn320 mutated to alanine (domain or fragment, human, UniProt P26651 174-326, looked up)
chain: APGHPPVLRQSISFSGLPSGRRTSPPPPGLAGPSLSSSSFSPSSSPPPPGDLPLSPSAFSAAPGTPLARRDPTPVCCPSCRRATPISVWGPLGGLVRTPSVQSLGSDPDEYASSGSSLGGSDSPVFEAGVFAPPQPVAAPRRLPIFARISVSE
binding result [5]: binds

APRRLPIANRISVSE [TTP peptide 312–326, Phe319Ala mutant]
Kd [1]: ~7 mM
